Assay [1] relates to mPOMC promoter. Description: NHR-promoter luciferase screen, mPOMC promoter. The class given is cell-based, mouse. The note with it: for Results of assays of transcription factor (+/- ligand) with mPOMC: Table 6d, luciferase activity relative to control (control = 1.00); for Luc. act., normalized to lacZ / Normalized Luc. act., normalized to control: mPOMC promoter, HR component with or without ligand; for Normalized Luc. act., normalized to control: relative to control. In short, it runs like this:
(§1)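 CV-1 cells were co-transfected with 50 ng NHR (homodimer or NHR/RXR heterodimer), 100 ng promoter-luciferase construct and 50 ng LacZ. Luciferase was normalized to LacZ and to a no-NHR/no-ligand control.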

Assay [2] has as its system mABCA1 promoter. Description: NHR-promoter luciferase screen, mABCA1 promoter. The note with it: for Luc. act., normalized to lacZ / Normalized Luc. act., normalized to control: ABCA1 promoter, hormone receptor with or without its ligand; for Normalized Luc. act., normalized to control: relative to control; for mABCA1 promoter reporter activity: transcription factor +/- ligand, control = 1.00. The class given is cell-based, mouse. In short, it runs like this: as §1

Assay [3] has as its system mDio1 promoter. Description: NHR-promoter luciferase screen, mDio1 promoter. It counts as cell-based, mouse. The note with it: for Luc. act., normalized to lacZ / Normalized Luc. act., normalized to control: Dio1, HR component without or with its ligand; for mDio1 promoter reporter activity: transcription factor +/- ligand, control = 1.00. The method, boiled down: as §1

The test system of assay [4] is hPOMC promoter. Description: NHR-promoter luciferase screen, hPOMC promoter. The class given is cell-based, human. The note with it: for Luc. act., normalized to lacZ / Normalized Luc. act., normalized to control: hPOMC promoter, HR/ligand component; for hPOMC promoter reporter activity: transcription factor +/- ligand, control = 1.00. In short, it runs like this: as §1

The subject of assay [5] is hCAR promoter. Description: NHR-promoter luciferase screen, hCAR promoter. The note with it: for luciferase activity normalized to lacZ activity and to a control, hCAR: hCAR promoter-luciferase, CV-1 cells, NHR +/- ligand, control = 1.00; for Luc. act., normalized to lacZ / Normalized Luc. act., normalized to control: hCAR promoter, HR/ligand component. It counts as cell-based, human. In short, it runs like this: as §1

Assay [6] relates to mCAR promoter. Description: NHR-promoter luciferase screen, mCAR promoter. The class given is cell-based, mouse. The note with it: for luciferase activity normalized to lacZ activity and to a control, mCAR: mCAR promoter-luciferase, CV-1 cells, NHR +/- ligand, control = 1.00; for Luc. act., normalized to lacZ / Normalized Luc. act., normalized to control: mCAR promoter, HR/ligand component. The method, boiled down:
as §1

B1: CAR: Constitutive Androstane Receptor (NR1I3), cDNA driver (protein, UniProt Q14994 1-352, looked up)
Nuclear receptor subfamily 1 …: MASREDELRNCVVCGDQATGYHFNALTCEGCKGFFRRTVSKSIGPTCPFAGSCEVSKTQRRHCPACRLQKCLDAGMRKDMILSAEALALRRAKQAQRRAQQTPVQLSKEQEELIRTLLGAHTRHMGTMFEQFVQFRPPAHLFIHHQPLPTLAPVLPLVTHFADINTFMVLQVIKFTKDLPVFRSLPIEDQISLLKGAAVEICHIVLNTTFCLQTQNFLCGPLRYTIEDGARVSPTVGFQVEFLELLFHFHGTLRKLQLQEPEYVLLAAMALFSPDRPGVTQRDEIDQLQEEMALTLQSYIKGQQRRPRDRFLYAKLLGLLAELRSINEAYGYQIQHIQGLSAMMPLLQEICS
As for B1, in assay [1], the “Results of assays of transcription factor (+/- ligand) with mPOMC” value (“Results” below) worked out at 0.92; the “Luc. act., normalized to lacZ” value is listed as 63.8; the “Normalized Luc. act., normalized to control” value is given as 0.9. Further, in assay [2], the “Luc. act., normalized to lacZ” value was determined as 6.1; the “Normalized Luc. act., normalized to control” value was 1.1; the “mABCA1 promoter reporter activity” value turned out to be 1.08. In assay [3], the “Luc. act., normalized to lacZ” value is 4.5; the “Normalized Luc. act., normalized to control” value came to 1.0; the “mDio1 promoter reporter activity” value came out at 1.01. Besides, in assay [4], the “Luc. act., normalized to lacZ” value is listed as 4.3; the “Normalized Luc. act., normalized to control” value amounted to 1.0; the “hPOMC promoter reporter activity” value is 1.00. Moreover, in assay [5], the “luciferase activity normalized to lacZ activity and to a control, hCAR” value (“luciferase activity normalized … hCAR” below) came out at 0.82; the “Luc. act., normalized to lacZ” value is recorded as 25.9; the “Normalized Luc. act., normalized to control” value stood at 0.8. In assay [6], the “luciferase activity normalized to lacZ activity and to a control, mCAR” value (“luciferase activity normalized … mCAR” for short) was 0.51; the “Luc. act., normalized to lacZ” value came out at 19.41; the “Normalized Luc. act., normalized to control” value came out at 0.5.

B2: FXR: Farnesoid X Receptor (NR1H4), cDNA driver (protein, UniProt Q96RI1 1-486, looked up)
Bile acid receptor: MVMQFQGLENPIQISPHCSCTPSGFFMEMMSMKPAKGVLTEQVAGPLGQNLEVEPYSQYSNVQFPQVQPQISSSSYYSNLGFYPQQPEEWYSPGIYELRRMPAETLYQGETEVAEMPVTKKPRMGASAGRIKGDELCVVCGDRASGYHYNALTCEGCKGFFRRSITKNAVYKCKNGGNCVMDMYMRRKCQECRLRKCKEMGMLAECMYTGLLTEIQCKSKRLRKNVKQHADQTVNEDSEGRDLRQVTSTTKSCREKTELTPDQQTLLHFIMDSYNKQRMPQEITNKILKEEFSAEENFLILTEMATNHVQVLVEFTKKLPGFQTLDHEDQIALLKGSAVEAMFLRSAEIFNKKLPSGHSDLLEERIRNSGISDEYITPMFSFYKSIGELKMTQEEYALLTAIVILSPDRQYIKDREAVEKLQEPLLDVLQKLCKIHQPENPQHFACLLGRLTELRTFNHHHAEMLMSWRVNDHKFTPLLCEIWDVQ
For B2, in assay [1], the “Results” value is given as 1.20; the “Luc. act., normalized to lacZ” value amounted to 82.5; the “Normalized Luc. act., normalized to control” value turned out to be 1.2. Also, in assay [2], the “Luc. act., normalized to lacZ” value was 14.0; the “Normalized Luc. act., normalized to control” value came to 2.5; the “mABCA1 promoter reporter activity” value is recorded as 2.50. Besides, in assay [3], the “Luc. act., normalized to lacZ” value was determined as 7.2; the “Normalized Luc. act., normalized to control” value is given as 1.6; the “mDio1 promoter reporter activity” value was determined as 1.62. In addition, in assay [4], the “Luc. act., normalized to lacZ” value came to 2.8; the “Normalized Luc. act., normalized to control” value is listed as 0.6; the “hPOMC promoter reporter activity” value worked out at 0.65. Besides, in assay [5], the “luciferase activity normalized … hCAR” value is recorded as 0.78; the “Luc. act., normalized to lacZ” value is 24.6; the “Normalized Luc. act., normalized to control” value is listed as 0.8. In assay [6], the “luciferase activity normalized … mCAR” value was 0.88; the “Luc. act., normalized to lacZ” value is recorded as 33.6; the “Normalized Luc. act., normalized to control” value amounted to 0.9.

B3: RXRb: Retinoic X Receptor β (NR2B2), cDNA driver (protein, UniProt P28702 1-533, looked up)
Retinoic acid receptor …: MSWAARPPFLPQRHAAGQCGPVGVRKEMHCGVASRWRRRRPWLDPAAAAAAAVAGGEQQTPEPEPGEAGRDGMGDSGRDSRSPDSSSPNPLPQGVPPPSPPGPPLPPSTAPSLGGSGAPPPPPMPPPPLGSPFPVISSSMGSPGLPPPAPPGFSGPVSSPQINSTVSLPGGGSGPPEDVKPPVLGVRGLHCPPPPGGPGAGKRLCAICGDRSSGKHYGVYSCEGCKGFFKRTIRKDLTYSCRDNKDCTVDKRQRNRCQYCRYQKCLATGMKREAVQEERQRGKDKDGDGEGAGGAPEEMPVDRILEAELAVEQKSDQGVEGPGGTGGSGSSPNDPVTNICQAADKQLFTLVEWAKRIPHFSSLPLDDQVILLRAGWNELLIASFSHRSIDVRDGILLATGLHVHRNSAHSAGVGAIFDRVLTELVSKMRDMRMDKTELGCLRAIILFNPDAKGLSNPSEVEVLREKVYASLETYCKQKYPEQQGRFAKLLLRLPALRSIGLKCLEHLFFFKLIGDTPIDTFLMEMLEAPHQLA
Take B3: in assay [1], the “Results” value is on record as 1.19; the “Luc. act., normalized to lacZ” value came out at 81.8; the “Normalized Luc. act., normalized to control” value is listed as 1.2. Also, in assay [2], the “Luc. act., normalized to lacZ” value came out at 11.1; the “Normalized Luc. act., normalized to control” value came to 2.0; the “mABCA1 promoter reporter activity” value was determined as 1.97. In addition, in assay [3], the “Luc. act., normalized to lacZ” value was 4.4; the “Normalized Luc. act., normalized to control” value is reported as 1.0; the “mDio1 promoter reporter activity” value turned out to be 0.99. Further, in assay [4], the “Normalized Luc. act., normalized to control” value amounted to 0.0 and the “hPOMC promoter reporter activity” value came to 0.00. In addition, in assay [5], the “luciferase activity normalized … hCAR” value stood at 0.95; the “Luc. act., normalized to lacZ” value stood at 30.1; the “Normalized Luc. act., normalized to control” value came out at 1.0. In assay [6], the “luciferase activity normalized … mCAR” value worked out at 1.27; the “Luc. act., normalized to lacZ” value came to 48.6; the “Normalized Luc. act., normalized to control” value is 1.3.

B4: PXR: Pregnane X Receptor (NR1I2), cDNA driver (protein, UniProt O75469 1-434, looked up)
Nuclear receptor subfamily 1 …: MEVRPKESWNHADFVHCEDTESVPGKPSVNADEEVGGPQICRVCGDKATGYHFNVMTCEGCKGFFRRAMKRNARLRCPFRKGACEITRKTRRQCQACRLRKCLESGMKKEMIMSDEAVEERRALIKRKKSERTGTQPLGVQGLTEEQRMMIRELMDAQMKTFDTTFSHFKNFRLPGVLSSGCELPESLQAPSREEAAKWSQVRKDLCSLKVSLQLRGEDGSVWNYKPPADSGGKEIFSLLPHMADMSTYMFKGIISFAKVISYFRDLPIEDQISLLKGAAFELCQLRFNTVFNAETGTWECGRLSYCLEDTAGGFQQLLLEPMLKFHYMLKKLQLHEEEYVLMQAISLFSPDRPGVLQHRVVDQLQEQFAITLKSYIECNRPQPAHRFLFLKIMAMLTELRSINAQHTQRLLRIQDIHPFATPLMQELFGITGS
For B4, in assay [1], the “Results” value was found to be 1.30; the “Luc. act., normalized to lacZ” value is 89.4; the “Normalized Luc. act., normalized to control” value was 1.3. In assay [2], the “Luc. act., normalized to lacZ” value came to 15.2; the “Normalized Luc. act., normalized to control” value is 2.7; the “mABCA1 promoter reporter activity” value was found to be 2.72. Further, in assay [3], the “Luc. act., normalized to lacZ” value was 11.3; the “Normalized Luc. act., normalized to control” value was 2.5; the “mDio1 promoter reporter activity” value turned out to be 2.52. Moreover, in assay [4], the “Luc. act., normalized to lacZ” value is reported as 4.2; the “Normalized Luc. act., normalized to control” value worked out at 1.0; the “hPOMC promoter reporter activity” value is listed as 0.98. In assay [5], the “luciferase activity normalized … hCAR” value is 1.16; the “Luc. act., normalized to lacZ” value was 36.5; the “Normalized Luc. act., normalized to control” value was 1.2. For the same molecule, in assay [6], the “luciferase activity normalized … mCAR” value is listed as 1.49; the “Luc. act., normalized to lacZ” value came out at 56.8; the “Normalized Luc. act., normalized to control” value came out at 1.5.
